Laboratory results published in patent US8357523B2, “Beta-glucosidase variant enzymes and related polynucleotides” (Codexis, Inc., priority 2009, dated 2013).
Where a chain is given by its changes, count along the chain named.

B1: 123 (protein)
chain: STAIAQEGAAPAAILHPEKWPRPATQRLIDPAVEKRVDALLKQLSVEEKVGQVIQGDIGTITPEDLRKYPLGSILAGGDSGPNGDDRAPPKEWLDLADAFYRVSLEKRPGHTPIPVLFGIDAVHGHGKIGSATIFPHNIALGMTRDPELLRRIGEVTAVEMTATGIDWTFAPALSVVRDDRWGRTYEGFSEDPEIVAAYSPAIVEGVQGKYGSKDFMAVGRIVASAKHFLADGGTDQGRDQGDARISEDELIRIHNAGYPPAIDAGVLTVMASFSSWQGIKHHGHKQLLTDVLKGQMGFNGFIVGDWNAHDQVPGCTKFNCPTSLIAGLDMYMAADSWKQLYENTLAQVKDGTIPMARLDDAVRRILRVKVLAGLFEKPAPKDRPGLPGLETLGSPEHRAVGREAVRKSLVLLKNDKGTLPLSPKARVLVAGDGADNIGKQSGGWTISWQGTGNRNDEFPGATSILGGIRDAVADAGGSVEFDVAGQYKTKPDVAIVVFGEEPYAEFQGDVETLEYQPDQKQDLALLKKLKDQGIPVVAVFLSGRPMWVNPELNASDAFVAAWLPGTEGGGVADVLFTDKAGKVQHDFAGKLSYSWPRTAAQTTVNRGDADYNPLFAYGYGLTYKDKSKVGTLPEESGVPAEARQNAGIYFRAGALRLPGRFL
B2: 128 (protein)
chain: B1 chain with V159E, T162A, V219P, S225C
B3: 132 (protein)
chain: B1 chain with K91Q, M143A, D146S, T162A, V219P, I222A, S225C
B4: 129 (protein)
chain: B1 chain with K128N, M143A, V159E, Y211F, V219P, S225C, I535V
B5: 124 (protein)
chain: B1 chain with K128N, M143A, D146S, V159E, T162A, V219P, S225C, K339R
B6: 125 (protein)
chain: B1 chain with D79N, K128N, M143A, T162A, Y211F, V219P, I222S, S225C
B7: 131 (protein)
chain: B1 chain with D79N, M143A, V159E, T162A, A173C, P201A, Y211F, V219P
B8: 130 (protein)
chain: B1 chain with A24V, D79N, K128N, V159E, T162A, V219P, I222S, S225C
B9: 127 (protein)
chain: B1 chain with K128N, M143A, D146S, T162A, V219P, I222S, S225C
B10: 126 (protein)
chain: B1 chain with K128N, Y211F, V219P, S225C, Q585R

Test: High throughput cellobiose assay: fold improvement in cellobiase activity of CelA variants over a control enzyme (Tables 2A-2D, 3, 5, 6, 7)
Format: biochemical
Conditions: 3.3 g/l cellobiose, 55° C. and pH 6.0

Molecule	Fold improvement over Control Variant No. 5 from Table 2A
B1	++ (++ = 1.1 to 6 fold improvement over control Variant No. 2)
B2	+++ (+++ = 6 to 13 fold improvement over control Variant No. 2)
B3	+++ (+++ = 6 to 13 fold improvement over control Variant No. 2)
B4	+++ (+++ = 6 to 13 fold improvement over control Variant No. 2)
B5	+++ (+++ = 6 to 13 fold improvement over control Variant No. 2)
B6	+++ (+++ = 6 to 13 fold improvement over control Variant No. 2)
B7	++ (++ = 1.1 to 6 fold improvement over control Variant No. 2)
B8	+++ (+++ = 6 to 13 fold improvement over control Variant No. 2)
B9	+++ (+++ = 6 to 13 fold improvement over control Variant No. 2)
B10	++ (++ = 1.1 to 6 fold improvement over control Variant No. 2)
